Target: K62-HA (K62 killer toxin with a C-terminal hemagglutinin tag), expressed by S. cerevisiae (Saccharomyces paradoxus)

K62-HA (K62 killer toxin with a C-terminal hemagglutinin tag), expressed by S. cerevisiae (natural protein)
stoichiometry N: 2

— PMC12691639
